Biological target: T1, recombinant human interleukin 1 alpha (IL-1α) (human, UniProt P01583 113-271)
T1 sequence (looked up): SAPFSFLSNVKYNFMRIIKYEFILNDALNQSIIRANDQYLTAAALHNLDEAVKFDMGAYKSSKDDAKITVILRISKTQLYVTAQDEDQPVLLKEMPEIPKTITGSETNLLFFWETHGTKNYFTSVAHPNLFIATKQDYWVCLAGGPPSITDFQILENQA
Assay: cell-based or functional assay

B1: human monoclonal antibody designated XIA13 (antibody, V domains shown)
VH: QVQLVQSGAEVKKPGSSVKVSCKASGGRFTNYAILWVRQAPGQGLQWLGGIIPIFDETDHAQDFQDRLTITVDESMTTAYMELSSLRPEDTAIYYCATGSNSYYGLYWGQGTLVTVSS
VL: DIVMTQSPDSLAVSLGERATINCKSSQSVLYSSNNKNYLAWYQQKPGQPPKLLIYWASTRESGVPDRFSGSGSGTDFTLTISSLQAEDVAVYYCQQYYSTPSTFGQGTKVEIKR
HUVEC-based potency assay: ICAM-1 expression on HUVEC cells by flow cytometry, IC50: 3.7 ng/mL

Source: patent publication US20260184779A1 (XBIOTECH, published 2026)
